{"source": "the DeepSol protein solubility set"}
{"assay": "soluble on expression in E. coli; label from the status in PepcDB or PDB records"}
{"sequence": "MVTLTTNTEGATIYYTLDGSNPTNKSVRYNGRIVVNENSVIKAIAEKEGLTSSAISTFSFVIVNNEPVRIHDIQGKSHLSPYNGKKVYNVEGVVTALDKNGFYIEDNQPDNDPATSEGMYVYKKDANVAVGDLIQVDGVVEEYVGPGYAERFDTDLTTTEIKASRVVVIAKDQVLPAPIVLGENGVKIPDQIIDNDAFGLFDPNEDAIDFYESVEGMRVTMPTPKIIAPQKNGNLYVTVKNGGNKVVTKYGTPVLDENQLNPERLSVKVPRDYVAKVGDTFTGDITGVVGYDYGSFRIAPITELPSVVDGGFKQIGANIQPRLDKLEHHHHHH", "soluble on expression in E. coli": "soluble"}
{"sequence": "AVNEENIMIPKGVEVYEITGPYFFGIATKFEETMAQLGDRPNVRIIRMRKVPFIDSTGIHNLTTLCEMSQKEKITVILSGVNEKVYKVLEKSGFYELLGKENICPNFKIALDRAEEVMK", "soluble on expression in E. coli": "soluble"}
{"sequence": "EKTVRVVINFKKTQKTIVRVSPHASLQELAPIICSKCEFDPLHTLLLKDYQSQEPLDLTKSLNDLGLRELYAMDVNRE", "soluble on expression in E. coli": "soluble"}
{"sequence": "MESEMSDPQPLQEERYDMSGARLALTLCVTKAREGSEVDMEALERMFRYLKFESTMKRDPTAQQFLEELDEFQQTIDNWEEPVSCAFVVLMAHGEEGLLKGEDEKMVRLEDLFEVLNNKNCKALRGKPKVYIIQACRGEHRDPGEELRGNEELGGDEELGGDEVAVLKNNPQSIPTYTDTLHIYSTVEGYLSYRHDEKGSGFIQTLTDVFIHKKGSILELTEEITRLMANTEVMQEGKPRKVNPEVQSTLRKKLYLQ", "soluble on expression in E. coli": "soluble"}
{"sequence": "MSILHMPLKIKDITIKNRIMMSPMCMYSASTDGMPNDWHIVHYATRAIGGVGLIMQEATAVESRGRITDHDLGIWNDEQVKELKKIVDICKANGAVMGIQLAHAGRKCNISYEDVVGPSPIKAGDRYKLPRELSVEEIKSIVKAFGEAAKRANLAGYDVVEIHAAHGYLIHEFLSPLSNKRKDEYGNSIENRARFLIEVIDEVRKNWPENKPIFVRVSADDYMEGGINIDMMVEYINMIKDKVDLIDVSSGGLLNVDINLYPGYQVKYAETIKKRCNIKTSAVGLITTQELAEEILSNERADLVALGRELLRNPYWVLHTYTSKEDWPKQYERAFKKHHHHHH", "soluble on expression in E. coli": "soluble"}
{"sequence": "MQNGAMKAWLDSSYLAGANQSYIEQLYEDFLTDPGSVDDSWRSIFQQLPTTGVKPDQLHSQTREYFRRLAKDSTRYNSSINDPDIDAKQVKVLQLINAFRFRGHQHANLDPLGLWKQESVPDLDPSYHNLTEADFQNTFNVGSFAIGKETMKLADLYAALKQTYCGSVGAEYMHITNTEEKRWIQQRIESVVGKPTFSDAEKRRFLSELTAAEGLERYLGAKFPGAKRFSLEGGDSLVTMLKEMIRHAGKNGTREVVLGMAHRGRLNVLINVLGKKPEDLFDEFAGKHKEHLGTGDVKYHQGFSSDVETEGGLVHLALAFNPSHLEIVSPVVIGSVRARRDRLDEARSNMVLPITIHGDAAITGQGVVQETLNMSQARGYEVGGTVRIVINNQIGFTTSNPLDARSTQYCTDIAKMVQAPIFHVNADDPEAVAFVTRLALDFRNTFKRDVMIDLVCYRRHGHNEADEPSATQPVMYQKIKKHPTPRKIYADKLIEQNIASLEDATEMVNLYRDALDHGDCVVEEWRPMNLQSFTWSPYLNHEWDEAYPSKVEMKRLQELARRISSAPEAIEMQSRVAKIYSDRALMASGEKPFDWGGAETLAYATLVDEGIPIRLSGEDAGRGTFFHRHAVIHNQKNGSVYVPLSNIHSGQGDFQVWDSVLSEEAVLAFEYGYATAEPRTLTIWEAQFGDFANGAQVVIDQFISSGEQKWGRMCGLVMLLPHGYEGQGPEHSSARLERYLQLCAEQNMQVCIPSTPAQVYHMIRRQALRGMRRPLIVMSPKSLLRHPLATSSLDELANGSFLPAIGEIDELDPKGIKRVVMCSGKVYYDLLEQRRKNGQTDVAIVRIEQLYPFPHQAVQSVLEQYAHVHDFVWCQEEPLNQGAWYCSQHNFREVIPFGASLRYAGRPASASPAVGYLSVHQKQQQALVNDALNVE", "soluble on expression in E. coli": "not soluble"}
{"sequence": "MRYMMTYDWMETVRNTNQWMGATANSMASYPLFSMVPNPVFNWMSAWGEVTERTFQRMVVKPDWGIRTFTCEDGKDHLVEINTVVERDFGDLIHINVTGRETQPRKVLLVAPMSGHYATLLRSTVKSLLVNCEVYVTDWHNARDIPVSAGKFDVEDYTLYLVDFMRELGPDTHVIAVCQPAPLTLAATAYLAELDPKAQPSTLTLIGGPVDPDATPTEVTDFGRRVTMGQLEQSMIQRVGFKYKGVGRMVYPGLLQLASFMSMNADRHSKAFTDQIQRVMRDEASDHDAHNRFYDEYLAVMDMTAEFYLSTVERVFKKREIARNAFIVDGHKVDISKITDVAVMTVEGANDDISAPGQCIAALDLCTGLADSKKANHLEPGAGHYGIFAGRSWRDNIRPLVIDFMNTNSRKGKSLRPANKNSAA", "soluble on expression in E. coli": "not soluble"}
{"sequence": "MSLKVVFVSYEVFPFAKVGGLADVAGTLPKYLKKHGVDVTIVMPKHRIVEKNAEKFGYEIKKVAESLSVSHVKTDQKFDIYESVLPGSDVKTYFVANDYYFSAEDVYAGPDLGEQAIFFCAATLDLVKHLDLKPDIVHVNDWQTALIPVYLKTVYRDDPYFSRTATVLTIHNLGYQGVFDPKYLSFAGLPDYVYTIDGLEFYGQLNFLKGGIVFSDVINTVSPTYAEEIQTEEYGEKLDGVLRMRSKDLYGILNGIDYELYNPATDRYIYVNYDVNRLELKWENKVKLQEELGLPVNKETAVAGLISRLVPQKGLDLLVDVMDYLTLFDLQIVVLGTGDEQYENAFRKFQERYPDKVSANIKFDVELAQKIYAGADIFLMPSRYEPCGLGQMFSMRYGTIPVVRYTGGLADTVKEYDPQSMEGTGFGFKKYDSAHLLKAVSKALHFYYREKDHWRRIMTNAMNTDLSWDRSAKEYVDLYKKALAKVGREGHHHHHH", "soluble on expression in E. coli": "soluble"}
{"sequence": "MGSSHHHHHHGGTGENLYFQGGSGMADERFDSMLLAIAQQQQGIDGILDTFFSFLNRKTDFFTQPDMARRSVQQAMSRYLAEAEEKQRKAKEAQAAAQQQQQQQQQSARTSSRVEVLESEEEVNAVAAAQAAEEAAQRKQELERAQREVAEAKAKKEAAGNEAETGATEAFADTGDAPRGLPPTAANGFAYEKYIFSQSLQEAEVRVPLPAVNVKGKQVSIVITSSHLTVGMKGQPPIVDGDLYSKVRAEECMWTIEDGHTVVVTLYKVNSMEWWKTIFQGDPEIDLQKVIPENSKLDDLDSDTRQTVEKMMYDQRQKMMGKPTSDEQKKQDMLRKFMEAHPEMDFSQAKFC", "soluble on expression in E. coli": "soluble"}
{"sequence": "MVTFASGDMLADDLGRFDYVVAMDSLIYYTDADIAAALDRLGARTRHSVVFTVAPRTPFLMAFWTMGKLFPRSDRSPVMIPHPFQPLNEATGGRLVKVGRVSRGFYISECLEFRPLEHHHHHH", "soluble on expression in E. coli": "soluble"}
{"sequence": "MGHHHHHHSHMQVTITLTSPIIREENMREGDVTSGMVKDPPDVLDRQKCLDALAALRHAKWFQARANGLQSCVIIIRILRDLCQRVPTWSDFPSWAMELLVEKAISSASSPQSPGDALRRVFECISSGIILKGSPGLLDPCEKDPFDTLATMTDQQREDITSSAQFALRLLAFRQIHKVLGMDPLPQMSQRFNIHNNRKRRRDSDGVDGFEAEGKKDKKDYDNF", "soluble on expression in E. coli": "not soluble"}
{"sequence": "MGSDKIHHHHHHMTLGTKLSVDQEYLKSFSEKHQEPAWLKNLRLQALEQAEDLPMPKPDKTKITNWNFTNFAKHTVDNEPLSSLEDLTDEVKALIDIENEDKTLYVQRDQTPAHLSLSQELKDKGVIFTDILTAAREHSDLVEKYFMKDGVKVDEHKLTALHAALVNGGAFLYVPKNVQVETPVQAVYVHESNDTALFNHVLIVAEDHSSVTYVENYISTVNPKDAVFNIISEVITGDNASVTYGAVDNLSSGVTTYVNRRGAARGRDSKIEWALGLMNDGDTISENTTNLYGDGTYGDTKTVVVGRGEQTENFTTQIIHFGKASEGYILKHGVMKDSASSIFNGIGKIEHGASKANAEQESRVLMLSEKARGDANPILLIDEDDVTAGHAASVGRVDPIQLYYLMSRGIPKEEAERLVIYGFLAPVVNELPIEGVKKQLVSVIERKVK", "soluble on expression in E. coli": "not soluble"}
{"sequence": "MSLKPWLITPERLTSEQIGLLDHFFDRGLERLHLRLPSAGEEDYSQVIEAVAACYRRRIVVHDHPRLVGRYGLCGLHLPERVWKGMTDRPQLPDGCTVSASCHAIEDIESFPFRLDYCFLSPVFDSLCKVGYAGRFSPDSLGDRLQRLHLPVVALGGITPDRLPQLRRAGFASAAALGYVWLVEGRELMRWQELCTPAVICVGGVDPSAGAGITADVRTAENMGVRAYTVATAITFQGSGSYRGERWVDSADIIRQIESLSAEMEPAVAKIGLIRDSDTLSLVVDCLKKVFPSIRIVWDPVLRASADSSAGQADRFNLEDITALSRIDFITPNLPEARHLLGCEPDDETLLDFYRRSGVGLVLKGGHAGESVVTDRIVYDGRCEALRLLRGGTGKHGTGCAHSTAFAAALALEQEPFTAAGMAQLYVSRLRERASGLLAMHKDLPVDPVVRLMSEIDLQFITHRQPDLSELEEAEAVCRIGVRWVQLRMKEASDEEMLHTACAVKAVCRHHGALFVVNDRVEIARQVDADGVHLGKEDMAIVEARRILGSNKIIGRTCNTMEDVRRAYAEGADYVGIGPYRYTETKQRLAPVLGLEGYKAIAACMQAEGIRLPAFAIGGIEDADIPLIRDCGIGGIAVSGSLIRKIKKEGHHHHHH", "soluble on expression in E. coli": "soluble"}
{"sequence": "MMGCLPTKQVGRSTHSLNPREAVALAAETSFTVNEVEALYDLFRKLSNSIIKDGLIHKEEFHLALFRNKKTNLFVDRVFDLFDQKGNGVIEFDEFVRSLSVFHPDAPEEQKAGFAFKLYDLRQTGFIERHELKEMVLALLDESDLNITSDAVEMIVDRTFDQADTKGDERIDQEEWNEFVKNNPYVLRNMTLPYLKDLTMVFPSFVIHSEVSEADMVA", "soluble on expression in E. coli": "soluble"}
{"sequence": "MKEVKKEYLTLDEVKILAQTPCEHDVLKRASLFSCLTGLRISDILNLRWEDFTLAPDQGYCIRIRTQKTSTEATLPISYEAYELCGEPSSGKVFKGLQRSMINYPLKKWIKQAGIMKHITFHCFRHSYAVIQISLGTDIYTVSKMLTHKNVSTTQIYADLEHHHHHH", "soluble on expression in E. coli": "not soluble"}
{"sequence": "MKKRGLENHPQNRKKIFERFPRLTKLSEKNLFQICKTTLLNERKMKSIQNTIDELRKLSAGKSSEEVQRLKEMQKHSKMFGEIFGVYGATVGKPKPKEKEVKVPTKEMTFEEKRKLLETTFPNKVTPGQRAKARETLNFIANNPEIYAIASPQDPSSKAKTDPVSRPQLNIISSFSWPITSGSDWSPHGSEFNDLTAPRVGKLTPVPQWSDMKKSSLKLGTEDNFSKMSYDPAYSNTTQSQSVTTLYNETSTPYYDDSDLGTPLHTCVQ", "soluble on expression in E. coli": "not soluble"}
{"sequence": "MAHHHHHHMVLTSDRGWPYSWERGESGILPDCYLNSEVERVWQIVKKDLTKLFSSHGKNKPSCHPRVLIGTPGIGKSMNVGSYLLYQLLHYDVEQLPMVVYFIANLTFLFDKTAKMVSLYTNEASILRILDGLPDRGFKGHIIYDVAMKGHQPSIGLPCKGWGMIVVTPPDKNNHEWWAKQMGAEEFIINCPEENDVRAMCIWMKRNRPLQEQAEYWKEVNGRMNKVGPILRFIFGKQAYDDRIKACQQALDGMNASKFEGYLDIGYCCVSNDSDLSRKLVKVVRVRRGYNFASPLNVLISPHLERETLSRLEDGMKQSDFIFFVLRFWDYVPPYLIEKYAVSAFLNDDFLRAIRLKIKELWPPGRRESHRCALKEHSDTSFARKEVLPPPERLSNPVAMDHWVLYEPKVQNFPLVDGFFFVDSNPKTLVGLRMTTAGGHRTTTRTVRRFTE", "soluble on expression in E. coli": "not soluble"}
{"sequence": "MGSDKIHHHHHHMKLSYVTDSLGHLPFEDMLNFAAKLGIDTLEMTTGGWSPAPHLNLDELLQSSEKRKEFSQALEKRNMTLCALNCSGNPLDPGELGKSHRDITDKTMELAGLLGVKKVIMMSGLPAGGPDDKVPNWITYTVSWPPVLKDILNYQWEDVAIPYWKKLVKKAEACGVGKIALENFSSQLVYNPETLFRLRNAVGPMVGLNLDPSHLLWMGADPIIAARELGSAIHHVHGKDVRIERYLSAVNGLLETKEVTDPANRAWNYVAVGCGQDLQWWKEFFSVVKMMGYEGEVSLEMEDLTMSPEAGIRTSVEALKQTISQ", "soluble on expression in E. coli": "not soluble"}
